Test results: article PMC9352680, “A comprehensive thermodynamic model for RNA binding by the Saccharomyces cerevisiae Pumilio protein PUF4”

T1: PUF4 RNA-binding domain (Saccharomyces cerevisiae, UniProt P25339 537-888)
T1 sequence: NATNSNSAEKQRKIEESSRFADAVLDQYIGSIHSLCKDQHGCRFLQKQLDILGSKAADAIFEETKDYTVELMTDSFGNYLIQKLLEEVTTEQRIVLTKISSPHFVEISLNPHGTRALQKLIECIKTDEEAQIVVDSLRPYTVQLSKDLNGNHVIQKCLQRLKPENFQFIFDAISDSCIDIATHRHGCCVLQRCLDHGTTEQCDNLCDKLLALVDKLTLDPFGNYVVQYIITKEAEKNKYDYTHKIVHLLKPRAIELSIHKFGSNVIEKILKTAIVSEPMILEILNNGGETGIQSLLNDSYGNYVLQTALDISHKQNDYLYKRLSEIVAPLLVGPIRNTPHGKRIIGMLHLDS


What follows are binders tested against T1, PUF4 RNA-binding domain (assay: Mg; RNA-MaP; 20 mM Na-HEPES pH 7.4, 30 mM KOAc, 0.75 mM MgCl2, 0.1% Tween-20, 5% glycerol, 0.1 mg/mL BSA, 2 mM DTT; 25 C; 0.0125-409.6 nM protein). Details: tags: N-His6-TEV cleaved; C-SNAP kept, Cy3B-labelled; label: tethered on chip by stalled RNA polymerase.

Row | Binder | Kd [nM]
1 | UCUCUUUGUACAAUUUCUCUU (ssRNA) [Ic_S1_P4E.1_K4.1_C4.1_H4.1_A4.1_[T5C]_[T7A]_F4.1_[A9T]_T4.1] | 11.2
2 | UCUCUUUGUACAACAUCUCUU (ssRNA) [Ic_S1_P4E.1_K4.1_C4.1_H4.1_A4.1_[T5C]_[T7A]_F4.1_[T8C]_T4.1] | 14.4
3 | UCUCUUUGUACACCCUCUCUU (ssRNA) [Ic_S1_P4E.1_K4.1_C4.1_H4.1_A4.1_[T5C]_[T7C]_F4.1_[T8C]_[A9C]_T4.1] | 118
4 | UCUCUUUGUACAAAUUCUCUU (ssRNA) [Ic_S1_P4E.1_K4.1_C4.1_H4.1_A4.1_[T5C]_[T7A]_F4.1_[T8A]_[A9T]_T4.1] | 125
5 | UCUCUUUGUACACCGUCUCUU (ssRNA) [Ic_S1_P4E.1_K4.1_C4.1_H4.1_A4.1_[T5C]_[T7C]_F4.1_[T8C]_[A9G]_T4.1] | 407
6 | UCUCUUUGCAUAUGUCUCUU (ssRNA) [Ib_S1_P3E.1_K3.1_C3.1_H3.1_[T3C]_A3.1_F3.1_[A8G]_T3.1] | > 2300
7 | UCUCUUUGUAACAAAUCUCUU (ssRNA) [Ic_S1_P4E.1_K4.1_C4.1_H4.1_A4.1_[T5A]_[A6C]_[T7A]_F4.1_[T8A]_T4.1] | 111
8 | UCUCUUUGUACAACGUCUCUU (ssRNA) [Ic_S1_P4E.1_K4.1_C4.1_H4.1_A4.1_[T5C]_[T7A]_F4.1_[T8C]_[A9G]_T4.1] | 92.3
9 | UCUCUUUGUACAAGCUCUCUU (ssRNA) [Ic_S1_P4E.1_K4.1_C4.1_H4.1_A4.1_[T5C]_[T7A]_F4.1_[T8G]_[A9C]_T4.1] | 692
10 | UCUCUUUGUACAUCCUCUCUU (ssRNA) [Ic_S1_P4E.1_K4.1_C4.1_H4.1_A4.1_[T5C]_F4.1_[T8C]_[A9C]_T4.1] | 29.5
11 | UCUCUUUGUAACGUAUCUCUU (ssRNA) [Ic_S1_P4E.1_K4.1_C4.1_H4.1_A4.1_[T5A]_[A6C]_[T7G]_F4.1_T4.1] | 17.3
12 | UCUCUUUGUAACAUCUCUCUU (ssRNA) [Ic_S1_P4E.1_K4.1_C4.1_H4.1_A4.1_[T5A]_[A6C]_[T7A]_F4.1_[A9C]_T4.1] | 24.5
13 | UCUCUUUAUAUAUUUCUCUU (ssRNA) [Ib_S1_P3E.1_K3.1_C3.1_H3.1_[G2A]_A3.1_F3.1_[A8T]_T3.1] | 696
14 | UCUCUUUGUAAGCACUCUCUU (ssRNA) [Ic_S1_P4E.1_K4.1_C4.1_H4.1_A4.1_[T5A]_[A6G]_[T7C]_F4.1_[T8A]_[A9C]_T4.1] | 1880
15 | UCUCUUUGUAACCUGUCUCUU (ssRNA) [Ic_S1_P4E.1_K4.1_C4.1_H4.1_A4.1_[T5A]_[A6C]_[T7C]_F4.1_[A9G]_T4.1] | 61
16 | UCUCUUUGUACAAUGUCUCUU (ssRNA) [Ic_S1_P4E.1_K4.1_C4.1_H4.1_A4.1_[T5C]_[T7A]_F4.1_[A9G]_T4.1] | 7.97
17 | UCUCUUUCUAUAUUUCUCUU (ssRNA) [Ib_S1_P3E.1_K3.1_C3.1_H3.1_[G2C]_A3.1_F3.1_[A8T]_T3.1] | > 2300

Row | Binder | Kd [nM]
18 | UCUCUUUGUAACAUGUCUCUU (ssRNA) [Ic_S1_P4E.1_K4.1_C4.1_H4.1_A4.1_[T5A]_[A6C]_[T7A]_F4.1_[A9G]_T4.1] | 12
19 | UCUCUUUAUAUAUGUCUCUU (ssRNA) [Ib_S1_P3E.1_K3.1_C3.1_H3.1_[G2A]_A3.1_F3.1_[A8G]_T3.1] | > 2300
20 | UCUCUUUGUAACCAUUCUCUU (ssRNA) [Ic_S1_P4E.1_K4.1_C4.1_H4.1_A4.1_[T5A]_[A6C]_[T7C]_F4.1_[T8A]_[A9T]_T4.1] | 548
21 | UCUCUUUGUACAUGUUCUCUU (ssRNA) [Ic_S1_P4E.1_K4.1_C4.1_H4.1_A4.1_[T5C]_F4.1_[T8G]_[A9T]_T4.1] | 20.9
22 | UCUCUUUGUAACCCCUCUCUU (ssRNA) [Ic_S1_P4E.1_K4.1_C4.1_H4.1_A4.1_[T5A]_[A6C]_[T7C]_F4.1_[T8C]_[A9C]_T4.1] | 1700
23 | UCUCUUUGUAACGCCUCUCUU (ssRNA) [Ic_S1_P4E.1_K4.1_C4.1_H4.1_A4.1_[T5A]_[A6C]_[T7G]_F4.1_[T8C]_[A9C]_T4.1] | 2000
24 | UCUCUUUGUAACGUUUCUCUU (ssRNA) [Ic_S1_P4E.1_K4.1_C4.1_H4.1_A4.1_[T5A]_[A6C]_[T7G]_F4.1_[A9T]_T4.1] | 314
25 | UCUCUUUGUACACAUUCUCUU (ssRNA) [Ic_S1_P4E.1_K4.1_C4.1_H4.1_A4.1_[T5C]_[T7C]_F4.1_[T8A]_[A9T]_T4.1] | 22.6
26 | UCUCUUUGUAACAAUUCUCUU (ssRNA) [Ic_S1_P4E.1_K4.1_C4.1_H4.1_A4.1_[T5A]_[A6C]_[T7A]_F4.1_[T8A]_[A9T]_T4.1] | 102
27 | UCUCUUUGUAAGCUCUCUCUU (ssRNA) [Ic_S1_P4E.1_K4.1_C4.1_H4.1_A4.1_[T5A]_[A6G]_[T7C]_F4.1_[A9C]_T4.1] | 1840
28 | UCUCUUUGUAACCGAUCUCUU (ssRNA) [Ic_S1_P4E.1_K4.1_C4.1_H4.1_A4.1_[T5A]_[A6C]_[T7C]_F4.1_[T8G]_T4.1] | > 2300
29 | UCUCUUUGUACAAUCUCUCUU (ssRNA) [Ic_S1_P4E.1_K4.1_C4.1_H4.1_A4.1_[T5C]_[T7A]_F4.1_[A9C]_T4.1] | 16.7
30 | UCUCUUUGUACACUUUCUCUU (ssRNA) [Ic_S1_P4E.1_K4.1_C4.1_H4.1_A4.1_[T5C]_[T7C]_F4.1_[A9T]_T4.1] | 7.32
31 | UCUCUUUGUACAUGCUCUCUU (ssRNA) [Ic_S1_P4E.1_K4.1_C4.1_H4.1_A4.1_[T5C]_F4.1_[T8G]_[A9C]_T4.1] | 28.6
32 | UCUCUUUGUAACAUUUCUCUU (ssRNA) [Ic_S1_P4E.1_K4.1_C4.1_H4.1_A4.1_[T5A]_[A6C]_[T7A]_F4.1_[A9T]_T4.1] | 13.9
33 | UCUCUUUGUAACAUAUCUCUU (ssRNA) [Ic_S1_P4E.1_K4.1_C4.1_H4.1_A4.1_[T5A]_[A6C]_[T7A]_F4.1_T4.1] | 1.55
